Key:
[1] = target: CH5-1 (nH5 of A/VN/1203/04 misfolded by three heat cycles 25-85 C)
[2] = target: CH5-2 (nH5 of A/VN/1203/04 heat cycled at pH 2)
[3] = target: CH5-3 (nH5 of A/VN/1203/04 heat cycled at pH 12)
[4] = target: CH5-4 (nH5 of A/VN/1203/04 incubated with 100 mM glucose-6-phosphate for 67 h at 80 C)
[5] = target: T1, dOVA-1 (ovalbumin misfolded by HCl treatment, 40 min 37 C, neutralized), P01012
T1 chain: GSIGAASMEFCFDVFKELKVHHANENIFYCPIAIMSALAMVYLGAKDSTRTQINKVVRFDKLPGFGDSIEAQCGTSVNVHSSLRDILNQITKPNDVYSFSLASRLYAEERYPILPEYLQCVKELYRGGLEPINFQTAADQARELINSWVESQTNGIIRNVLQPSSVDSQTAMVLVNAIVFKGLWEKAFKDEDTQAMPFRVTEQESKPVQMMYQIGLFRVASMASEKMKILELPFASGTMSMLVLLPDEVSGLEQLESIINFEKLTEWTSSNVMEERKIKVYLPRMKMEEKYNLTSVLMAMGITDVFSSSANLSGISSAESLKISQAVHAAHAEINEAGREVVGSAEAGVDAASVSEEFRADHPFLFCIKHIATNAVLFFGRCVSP

[6] = target: T2, dOVA-2 (ovalbumin misfolded by five heat cycles 30 to 85 C), P01012
T2 chain: T1 chain

[7] = target: T3, dOVA-3 (ovalbumin misfolded by about 16 h at 75 C), P01012
T3 chain: T1 chain

[8] = target: nH5 (non-treated H5 of H5N1 strain A/Vietnam/1203/04, Protein Sciences, NaCl adjusted to 171 mM)
[9] = target: T4, nOVA (non-treated ovalbumin, 1 mg/ml in PBS), P01012
T4 chain: T1 chain

B1: tissue type plasminogen activator (tPA) (protein)
chain: SYQVICRDEKTQMIYQQHQSWLRPVLRSNRVEYCWCNSGRAQCHSVPVKSCSEPRCFNGGTCQQALYFSDFVCQCPEGFAGKCCEIDTRATCYEDQGISYRGTWSTAESGAECTNWNSSALAQKPYSGRRPDAIRLGLGNHNYCRNPDRDSKPWCYVFKAGKYSSEFCSTPACSEGNSDCYFGNGSAYRGTHSLTESGASCLPWNSMILIGKVYTAQNPSAQALGLGKHNYCRNPDGDAKPWCHVLKNRRLTWEYCDVPSCSTCGLRQYSQPQFRIKGGLFADIASHPWQAAIFAKHRRSPGERFLCGGILISSCWILSAAHCFQERFPPHHLTVILGRTYRVVPGEEEQKFEVEKYIVHKEFDDDTYDNDIALLQLKSDSSRCAQESSVVRTVCLPPADLQLPDWTECELSGYGKHEALSPFYSERLKEAHVRLYPSSRCTSQHLLNRTVTDNMLCAGDTRSGGPQANLHDACQGDSGGPLVCLNDGRMTLVGIISWGLGCGQKDVPGVYTKVTNYLDWIRDNMRP
B1 was tested, and the “tPA mediated plasminogen activation assay” value [1] was “CH5-1 (50% of standard)”, the “tPA mediated plasminogen activation assay” value [2] was “CH5-2 (150% of standard)” and the “tPA mediated plasminogen activation assay” value [3] was “CH5-3 (200% of standard)”. For the same protein, the “tPA mediated plasminogen activation assay” value [4] was “CH5-4 (37% of standard)”, the tPA activation potency, Activation at 10 ug/mL (% of reference) [5] was 97.4 and the tPA activation potency, Activation at 25 ug/mL (% of reference) [5] was 136. The tPA activation potency (tPA-mediated plasminogen activation, chromogenic); reference dOVA-2 at 80 ug/mL, column Activation at 10 ug/mL (% of reference) [6] was 100, the tPA activation potency (tPA-mediated plasminogen activation, chromogenic); reference dOVA-2 at 80 ug/mL, column Activation at 25 ug/mL (% of reference) [6] was 100 and the tPA activation potency, Activation at 10 ug/mL (% of reference) [6] was 107. The tPA activation potency, Activation at 25 ug/mL (% of reference) [6] was 107, the “tPA/Plg activating potential, cross-beta ovalbumin standard at 10 ug/ml” value [6] was “at 10 and 50 ug/ml, tPA/plg activation is 100% and 85%, respectively” and the “tPA/Plg activating potential, cross-beta ovalbumin standard at 30 ug/ml” value [6] was “The activating potential of cross-beta ovalbumin standard at 30 ug/ml is set to 100%”. For the same protein, the “tPA/Plg activating potential, cross-beta ovalbumin standard at 50 ug/ml” value [6] was “at 10 and 50 ug/ml, tPA/plg activation is 100% and 85%, respectively”, the tPA activation potency, Activation at 10 ug/mL (% of reference) [7] was 60.9 and the tPA activation potency, Activation at 25 ug/mL (% of reference) [7] was 79. The “tPA mediated plasminogen activation assay” value [8] was “nH5 (140% of standard)”, the tPA activation potency, Activation at 10 ug/mL (% of reference) [9] was 48.8 and the tPA activation potency, Activation at 25 ug/mL (% of reference) [9] was 48.1.
